By kcat is commonly meant the number of substrate molecules converted per active site and unit of time at saturation.

Data set [1] deals with NmSiaDW α1-4-galactosyltransferase activity (Neisseria meningitidis, UniProt O33390). Format: biochemical. Particulars: apparent; varying UDP-Gal, fixed acceptor 2 mM (row names the acceptor).
Data set [2] deals with α2-6-sialyltransferase activity of NmSiaDW. Format: biochemical, Neisseria meningitidis.
Data set [3] relates to NmSiaDW. The data set is described as follows: Temperature profile of NmSiaDW activities. Format: biochemical, Neisseria meningitidis. How it is done: Assays were carried out in duplicate at different temperatures for 20 min in a total volume of 10 μL in a buffer (MES, 100 mM, pH 6.5 for GalT and Tris-HCl, 100 mM, pH 8.0 for SiaT assays) containing a donor substrate (1.2 mM) (UDP-Gal for GalT and CMP-Neu5Ac for SiaT assays), an acceptor substrate (1 mM) (S1 for GalT and G2 for SiaT assays), MgCl2 (10 mM), and NmSiaDW (19.8 μg for GalT and 0.17 μg for SiaT assays). Reactions were quenched by adding 10 μL of pre-chilled ethanol to the reaction mixture followed by incubation at −20° C. for 30 min. Products were assayed as described above for pH profile studies.

Data set [4] has as its system NmSiaDW. Kind of data set: Thermostability of NmSiaDW (pre-heated 30 min, then activity assay at 30° C.). Format: biochemical, Neisseria meningitidis. How it is done: Enzyme was pre-heated at a given temperature for 30 min, then put on ice for 10 min. Reactions were performed at 30° C. and activity assays were then carried out as described above for the temperature profile assays.

[5] abbreviates: α1-4-galactosyltransferase activity.

As to `CC(=O)N[C@H]1[C@H]([C@H](O)[C@H](O)CO)O[C@@](OCCCNC(=O)OCc2ccccc2)(C(=O)O)C[C@@H]1O[C@H]1O[C@H](CO[C@]2(C(=O)O)C[C@H](O)[C@@H](NC(C)=O)[C@H]([C@H](O)[C@H](O)CO)O2)[C@H](O)[C@H](O)[C@H]1O` [S3, Neu5Acα2-6Galα1-4Neu5AcαProNHCbz], the kcat in data set [1] worked out at 6.3 ± 0.2 s⁻¹.

Take `OC[C@H]1O[C@@H](O[C@H]2[C@H](O)[C@@H](O)C(O)O[C@@H]2CO)[C@H](O)[C@@H](O)[C@H]1O` (some centres unmarked) [Galβ1-4Glc]: in data set [2], the Product result is recorded as “√”.

Consider `CO[C@H]1O[C@H](CO)[C@H](O)[C@H](O)[C@H]1O` [GalαOMe], for which the Product result in data set [2] is recorded as “Not Detected”.

B1: NmSiaDW: recombinant C-terminal His-tagged N. meningitidis serogroup W capsular polysaccharide synthase, SEQ ID NO:2 (protein)
chain: MAVIIFVNGIRAVNGLVKSSINTANAFAEEGLDVHLINFVGNITGAEHLYPPFHLHPNVKTSSIIDLFNDIPENVSCRNTPFYSIHQQFFKAEYSAHYKHVLMKIESLLSAEDSIIFTHPLQLEMYRLANNDIKSKAKLIVQIHGNYMEEIHNYEILARNIDYVDYLQTVSDEMLEEMHSHFKIKKDKLVFIPNITYPISLEKKEADFFIKDNEDIDNAQKFKRISIVGSIQPRKNQLDAIKIINKIKNENYILQIYGKSINKDYFELIKKYIKDNKLQNRILFKGESSEQEIYENTDILIMTSESEGFPYIFMEGMVYDIPIVVYDFKYGANDYSNYNENGCVFKTGDISGMAKKIIELLNNPEKYKELVQYNHNRFLKEYAKDVVMAKYFTILPRSFNNVSLSSAFSRKELDEFQNITFSIEDSNDLAHIWNFELTNPAQNMNFFALVGKRKFPMDAHIQGTQCTIKIAHKKTGNLLSLLLKKRNQLNLSRGYTLIAEDNSYEKYIGAISNKGNFEIIANKKSSLVTINKSTLELHEIPHELHQNKLLIALPNMQTPLKITDDNLIPIQASIKLEKIGNTYYPCFLPSGIFNNICLDYGEESKIINFSKYSYKYIYDSIRHIEQHTDISDIIVCNVYSWELIRASVIESLMEFTGKWEKHFQTSPKIDYRFDHEGKRSMDDVFSEETFIMEFPRKNGIDKKTAAFQNIPNSIVMEYPQTNGYSMRSHSLKSNVVAAKHFLEKLNKIKVDIKFKKHDLANIKKMNRIIYEHLGININIEAFLKPRLEKFKREEKYFHDFFKRNNFKEVIFPSTYWNPGIICAAHKQGIKVSDIQYAAITPYHPAYFKSPKSHYVADKLFLWSEYWNHELLPNPTREIGSGAAYWYALDDVRFSEKLNYDYIFLSQSRISSRLLSFAIEFALKNPQLQLLFSKHPDENIDLKNRIIPDNLIISTESSIQGINESRVAVGVYSTSLFEALACGKQTFVVKYPGYEIMSNEIDSGLFFAVETPEEMLEKTSPNWVAVADIENQFFGQEK
Take B1: the optimal temperature in the data set with NmSiaDW [3] (sialyltransferase activity) is 30-37 °C; with NmSiaDW [3] (setting [5]), 20-33 °C. For the same molecule, the “incubation temperature at which both glycosyltransferase activities were lost (30 minutes)” value in the data set on NmSiaDW [4] (both activities) is 44 °C. Besides, the “temperature up to which activity is retained after 30 minutes incubation” value in the data set with NmSiaDW [4] (setting [5]) was “up to 33 °C”. In addition, in the data set with NmSiaDW [4] (α2-6-sialyltransferase activity), the “incubation temperature above which activity decreased significantly (30 minutes)” value is “higher than 30 °C”.

The record behind these values is patent publication US20220145343A1 (priority 2019, published 2022).
